Measured values from article PMC2962916.

Target: T1, HMGD-M13A HMG box (D74-M13A) (Drosophila melanogaster, UniProt Q05783 1-74, M13A)
T1 sequence: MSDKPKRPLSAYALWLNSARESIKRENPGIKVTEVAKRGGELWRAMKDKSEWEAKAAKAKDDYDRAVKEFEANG
Test: X-ray crystallography

B1: GCGATATCGC decamer duplex (dsDNA)
DNA 1: GCGATATCGC
DNA 2: GCGATATCGC
binding result: binds
